{"source": "paper PMC10715038", "test_in_all_cases": "SPR", "key": {"[1]": {"biological_target": "Horse ACE2-huFc (soluble horse ACE2 ectodomain, human IgG1 Fc fusion) (horse (Equus caballus)) (UniProt F6V9L3)"}, "[2]": {"biological_target": "Pangolin ACE2-huFc (soluble pangolin ACE2 ectodomain, human IgG1 Fc fusion) (pangolin (Manis javanica))"}, "[3]": {"biological_target": "Horse ACE2-huFc (soluble horse ACE2 ectodomain, human IgG1 Fc fusion) (horse (Equus caballus)) (UniProt F6V9L3)", "remark": "listed apart in the source"}}, "note": "Read-outs that look alike come from different tables or passages of the source."}
{"substance": "SARS-CoV-2 WHU01 Spike RBD, monomeric (from UniProt P0DTC2) (domain or fragment)", "values": [{"measurement": "Kd", "setting": "[1]", "result": 89.8, "unit": "nM"}, {"measurement": "Kd", "setting": "[2]", "result": 67.1, "unit": "nM"}, {"measurement": "Kd", "setting": "[3]", "result": 67.4, "unit": "nM"}]}
